The labels stand for the following.
B1: full-length tepsin-GST (residues 1-525) (natural protein)
chain: MAAAPPLRDRLSFLHRLPILLKGTSDDDVPCPGYLFEEIAKISHESPGSSQCLLEYLLSRLHSSSGHGKLKVLKILLYLCSHGSSFFLLILKRNSAFIQEAAAFAGPPDPLHGNSLYQKVRAAAQDLGSTLFSDTVLPLAPSQPLGTPPATGMGSQARPHSTLQGFGYSKEHGRTAVRHQPGQAGGGWDELDSGPSSQNSSQNSDLSRVSDSGSHSGSDSHSGASREPGDLAERVEVVALSDCQQELSLVRTVTRGPRAFLSREEAQHFIKACGLLNCEAVLQLLTCHLRGTSECTQLRALCAIASLGSSDLLPQEHILLRTRPWLQELSMGSPGPVTNKATKILRHFEASCGQLSPARGTSAEPGPTAALPGPSDLLTDAVPLPGSQVFLQPLSSTPVSSRSPAPSSGMPSSPVPTPPPDASPIPAPGDPSEAEARLAESRRWRPERIPGGTDSPKRGPSSCAWSRDSLFAGMELVACPRLVGAGAAAGESCPDAPRAPQTSSQRTAAKEPPGSEPSAFAFLNA
B2: AP-4 β4 appendage domain (residues 615-739) (domain or fragment, UniProt Q9Y6B7 615-739, looked up)
chain: SGALMLVPNRQLTADYFEKTWLSLKVAHQQVLPWRGEFHPDTLQMALQVVNIQTIAMSRAGSRPWKAYLSAQDDTGCLFLTELLLEPGNSEMQISVKQNEARTETLNSFISVLETVIGTIEEIKS

Test [1] has as its target T1, His6x-LC3B (residues 1-120) (UniProt Q9GZQ8 1-120). Put plainly: ITC.
In test [2] the target is T1, His6x-LC3B (residues 1-120). In words: pull-down.
Test [3] addresses B1. Put plainly: pull-down.

Turning to SGGGWDELDS [tepsin LIR motif peptide (residues 185-193)], the Kd in test [1] amounted to 44.4 µM. B1: in test [2], the binding result is “binds”. With B2, the binding result in test [3] is “binds”.

The Kd is the free concentration of one partner at which half of the binding sites on the other are occupied at equilibrium, for simple one-to-one binding. High values mean lower affinity, low ones higher affinity.

Source of the values: doi:10.1101/2023.07.18.549521 (bioRxiv, 2023).
